Source: CN105713087A (BEIJING HEALTH GUARDS BIOTECHNOLOGY CO LTD, dated 2016)

Tests used:
HPV-18 L1 VLP = biological target: T1, HPV-18 L1 VLP (human papillomavirus type 18, UniProt P06794 62-568); assay: indirect ELISA on coated VLP
T1 construct: also called HPV18VLP
T1 sequence: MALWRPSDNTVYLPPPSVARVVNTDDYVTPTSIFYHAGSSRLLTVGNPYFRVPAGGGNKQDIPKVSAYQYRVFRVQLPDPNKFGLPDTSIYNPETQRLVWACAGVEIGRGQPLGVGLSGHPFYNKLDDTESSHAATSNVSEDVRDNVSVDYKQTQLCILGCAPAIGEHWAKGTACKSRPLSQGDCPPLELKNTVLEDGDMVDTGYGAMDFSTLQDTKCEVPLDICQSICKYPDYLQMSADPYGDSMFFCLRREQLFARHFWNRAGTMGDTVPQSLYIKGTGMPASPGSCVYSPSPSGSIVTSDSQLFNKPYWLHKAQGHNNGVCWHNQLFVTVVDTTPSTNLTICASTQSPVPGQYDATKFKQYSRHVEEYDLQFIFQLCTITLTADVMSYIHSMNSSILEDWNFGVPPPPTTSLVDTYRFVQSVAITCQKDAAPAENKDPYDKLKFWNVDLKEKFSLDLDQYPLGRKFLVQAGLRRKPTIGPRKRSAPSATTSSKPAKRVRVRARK

HPV-16 L1 VLP = biological target: T2, HPV-16 L1 VLP (human papillomavirus type 16, UniProt P03101 1-505); assay: indirect ELISA on coated VLP
T2 construct: also called HPV16VLP
T2 sequence: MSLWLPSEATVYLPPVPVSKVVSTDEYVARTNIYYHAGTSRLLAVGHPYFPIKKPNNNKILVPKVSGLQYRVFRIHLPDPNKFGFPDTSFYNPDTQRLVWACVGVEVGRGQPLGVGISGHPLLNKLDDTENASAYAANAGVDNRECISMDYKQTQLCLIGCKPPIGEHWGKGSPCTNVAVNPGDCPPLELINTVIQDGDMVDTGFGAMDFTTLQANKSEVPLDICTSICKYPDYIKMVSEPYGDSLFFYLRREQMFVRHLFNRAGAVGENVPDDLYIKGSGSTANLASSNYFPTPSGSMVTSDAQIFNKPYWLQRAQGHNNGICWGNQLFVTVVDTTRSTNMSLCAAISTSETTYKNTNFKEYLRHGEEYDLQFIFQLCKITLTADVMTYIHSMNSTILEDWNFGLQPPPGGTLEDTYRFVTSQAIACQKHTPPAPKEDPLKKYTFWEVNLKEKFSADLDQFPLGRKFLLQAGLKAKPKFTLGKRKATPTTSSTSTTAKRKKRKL

HPV6 VLP = biological target: T3, HPV6 VLP (human papillomavirus type 6, UniProt P69899 1-500); assay: SPR (BIACORE 3000)
T3 sequence: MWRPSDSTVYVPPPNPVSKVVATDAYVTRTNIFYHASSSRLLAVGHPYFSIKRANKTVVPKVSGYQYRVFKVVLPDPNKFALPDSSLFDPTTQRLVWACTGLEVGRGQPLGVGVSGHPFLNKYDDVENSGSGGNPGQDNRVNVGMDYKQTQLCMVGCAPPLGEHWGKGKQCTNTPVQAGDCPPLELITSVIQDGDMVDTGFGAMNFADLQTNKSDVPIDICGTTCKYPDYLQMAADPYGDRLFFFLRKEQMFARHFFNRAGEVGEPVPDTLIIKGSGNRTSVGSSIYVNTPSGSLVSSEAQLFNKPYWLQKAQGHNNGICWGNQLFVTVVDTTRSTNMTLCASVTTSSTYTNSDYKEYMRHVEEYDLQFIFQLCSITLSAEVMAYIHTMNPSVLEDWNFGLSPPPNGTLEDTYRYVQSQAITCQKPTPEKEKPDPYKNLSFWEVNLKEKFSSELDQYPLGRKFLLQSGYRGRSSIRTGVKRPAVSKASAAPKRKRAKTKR

HPV31 VLP = biological target: T4, HPV31 VLP (human papillomavirus type 31, UniProt P17388 1-504); assay: SPR (BIACORE 3000)
T4 sequence: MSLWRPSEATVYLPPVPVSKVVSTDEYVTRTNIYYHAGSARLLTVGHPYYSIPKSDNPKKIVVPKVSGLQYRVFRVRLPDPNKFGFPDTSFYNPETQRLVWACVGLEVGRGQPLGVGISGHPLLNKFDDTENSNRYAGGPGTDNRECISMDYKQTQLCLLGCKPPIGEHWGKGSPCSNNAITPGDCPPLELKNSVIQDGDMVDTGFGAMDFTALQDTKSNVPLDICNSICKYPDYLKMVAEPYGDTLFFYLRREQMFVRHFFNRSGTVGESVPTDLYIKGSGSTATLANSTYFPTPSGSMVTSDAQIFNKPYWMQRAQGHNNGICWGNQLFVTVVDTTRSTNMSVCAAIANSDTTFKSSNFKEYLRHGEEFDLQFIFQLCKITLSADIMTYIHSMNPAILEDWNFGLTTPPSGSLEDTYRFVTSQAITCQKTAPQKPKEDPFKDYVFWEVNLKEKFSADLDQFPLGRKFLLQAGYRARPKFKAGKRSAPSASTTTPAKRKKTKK

HPV11 VLP = biological target: T5, HPV11 VLP (human papillomavirus type 11, UniProt P04012 1-501); assay: SPR (BIACORE 3000)
T5 sequence: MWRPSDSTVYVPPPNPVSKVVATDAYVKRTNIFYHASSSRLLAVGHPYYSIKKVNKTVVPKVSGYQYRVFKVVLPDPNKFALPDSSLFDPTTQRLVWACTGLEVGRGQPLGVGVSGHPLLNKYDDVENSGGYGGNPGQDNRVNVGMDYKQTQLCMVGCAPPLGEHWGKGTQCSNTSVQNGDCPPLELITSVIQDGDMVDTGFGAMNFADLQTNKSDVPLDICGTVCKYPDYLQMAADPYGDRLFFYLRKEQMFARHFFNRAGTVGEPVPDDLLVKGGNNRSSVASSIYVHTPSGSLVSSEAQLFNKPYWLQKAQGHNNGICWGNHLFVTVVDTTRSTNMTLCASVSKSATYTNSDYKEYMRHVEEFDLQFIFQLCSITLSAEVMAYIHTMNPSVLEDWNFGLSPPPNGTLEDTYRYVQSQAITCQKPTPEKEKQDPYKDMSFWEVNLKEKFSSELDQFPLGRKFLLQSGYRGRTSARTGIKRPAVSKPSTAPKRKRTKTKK

HPV45 VLP = biological target: T6, HPV45 VLP (human papillomavirus type 45, UniProt P36741 27-539); assay: SPR (BIACORE 3000)
T6 sequence: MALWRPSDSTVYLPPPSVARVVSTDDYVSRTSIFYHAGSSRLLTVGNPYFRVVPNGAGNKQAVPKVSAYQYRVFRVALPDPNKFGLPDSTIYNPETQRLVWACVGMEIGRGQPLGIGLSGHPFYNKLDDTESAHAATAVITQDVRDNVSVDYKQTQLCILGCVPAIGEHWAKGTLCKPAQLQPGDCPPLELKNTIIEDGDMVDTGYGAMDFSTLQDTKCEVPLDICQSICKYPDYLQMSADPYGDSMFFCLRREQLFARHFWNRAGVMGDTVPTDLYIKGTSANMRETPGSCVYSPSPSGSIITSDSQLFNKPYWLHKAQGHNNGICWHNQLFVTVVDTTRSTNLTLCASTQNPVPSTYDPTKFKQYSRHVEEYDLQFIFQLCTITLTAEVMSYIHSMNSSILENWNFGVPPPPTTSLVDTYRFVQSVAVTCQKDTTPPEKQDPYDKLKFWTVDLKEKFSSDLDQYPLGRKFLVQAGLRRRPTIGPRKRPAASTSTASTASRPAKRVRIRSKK

Measured: binding result

B1: 单克隆抗体2F7 (杂交瘤细胞株2F7, CGMCC No.11295) (antibody, V domains shown)
VH: VQLQQSGPGLVQPSQSLSITCTVSGFSLTSYGVHWVRQSPGKGLEWLGVIWSGGSTDYNAAFISRLSISKDNSKSQVFFKMNSLQANDTAIYYCARRDGNSRYAMDYWGQGTTVTVSS
VL: DIQLTQSPSSMSASLGDRITITCQATQDIVKNLNWYQQKPGKPPSFLIYYATELAEGVPSRFSGSGSGSDYSLTISNLESEDFADYYCLQFYEFPLTFGAGTKLEI
notes: also called 克隆2F7
no binding (tested: 0.3μg/ml): HPV-18 L1 VLP | HPV-16 L1 VLP
no binding (tested: 20nmol/L): all other assays above
